Results as given in patent US20040018971A1 (published 2004).

B1: HER2/neu peptide, position 706, 9 amino acids (peptide)
peptide: MPNQAQMRI
notes: T0001 prints N at residue 706; also called Her2/neu.706
B2: HER2/neu peptide, position 706, 10 amino acids (peptide)
peptide: MPNQAQMRIL
notes: as for B1
B3: HER2/neu peptide, position 701, 10 amino acids (peptide)
peptide: TPSGAMPNQA
notes: T0001 prints N at residue 706; also called Her2/neu.701

Target: T1, HLA-B*0702 (human)
T1 construct: also called B7 supertype prototype molecule
Assay: inhibition of 125I standard peptide binding to purified HLA

In order of rising relative binding ratio:
1. PPICTIDV (also called Her2/neu.944) [HER2/neu peptide, position 944, 8 amino acids]  -0.0006 ratio to standard peptide
2. SPLDSTFY (also called Her2/neu.998) [HER2/neu peptide, position 998, 8 amino acids]  -0.0006 ratio to standard peptide
3. NPEYLTPQGGA (also called Her2/neu.1193) [HER2/neu peptide, position 1193, 11 amino acids]  -0.0003 ratio to standard peptide
4. PPSTFKGTPTA (also called Her2/neu.1233) [HER2/neu peptide, position 1233, 11 amino acids]  -0.0003 ratio to standard peptide
5. PPERGAPPSTF (also called Her2/neu.1227) [HER2/neu peptide, position 1227, 11 amino acids]  -0.0003 ratio to standard peptide
6. NPEGRYTF (also called Her2/neu.284) [HER2/neu peptide, position 284, 8 amino acids]  -0.0002 ratio to standard peptide
7. NPQLCYQDTIL (also called Her2/neu.158) [HER2/neu peptide, position 158, 11 amino acids]  -0.0002 ratio to standard peptide
8. PPAFSPAFDNL (also called Her2/neu.1210) [HER2/neu peptide, position 1210, 11 amino acids]  -0.0002 ratio to standard peptide
9. SPGKNGVVKDV (also called Her2/neu.1174) [HER2/neu peptide, position 1174, 11 amino acids]  -0.0002 ratio to standard peptide
10. TPVTGASPGGL (also called Her2/neu.127) [HER2/neu peptide, position 127, 11 amino acids]  -0.0002 ratio to standard peptide
11. SPAFDNLY (also called Her2/neu.1214) [HER2/neu peptide, position 1214, 8 amino acids]  -0.0002 ratio to standard peptide
12. VPLPSETDGYV (also called Her2/neu.1118) [HER2/neu peptide, position 1118, 11 amino acids]  -0.0002 ratio to standard peptide
13. PPAFSPAF (also called Her2/neu.1210) [HER2/neu peptide, position 1210, 8 amino acids]  -0.0002 ratio to standard peptide
14. QPEQLQVFETL (also called Her2/neu.393) [HER2/neu peptide, position 393, 11 amino acids]  -0.0002 ratio to standard peptide
15. RPEDECVGEGL (also called Her2/neu.499) [HER2/neu peptide, position 499, 11 amino acids]  -0.0002 ratio to standard peptide
16. PPPAFSPA (also called Her2/neu.1209) [HER2/neu peptide, position 1209, 8 amino acids]  -0.0002 ratio to standard peptide
17. QPEQLQVF (also called Her2/neu.393) [HER2/neu peptide, position 393, 8 amino acids]  -0.0002 ratio to standard peptide
18. NPEYLGLDVPV (also called Her2/neu.1245) [HER2/neu peptide, position 1245, 11 amino acids]  -0.0002 ratio to standard peptide
19. PPICTIDVY (also called Her2/neu.944) [HER2/neu peptide, position 944, 9 amino acids]  0.0001 ratio to standard peptide
20. SPAFDNLYY (also called Her2/neu.1214) [HER2/neu peptide, position 1214, 9 amino acids]  0.0001 ratio to standard peptide
21. QPPICTIDVY (also called Her2/neu.943) [HER2/neu peptide, position 943, 10 amino acids]  0.0001 ratio to standard peptide
22. NPEGRYTFGA (also called Her2/neu.284) [HER2/neu peptide, position 284, 10 amino acids]  0.0001 ratio to standard peptide
23. QPEYVNQPDV (also called Her2/neu.1136) [HER2/neu peptide, position 1136, 10 amino acids]  0.0001 ratio to standard peptide
24. MPNPEGRYTF (also called Her2/neu.282) [HER2/neu peptide, position 282, 10 amino acids]  0.0001 ratio to standard peptide
25. QPPICTIDV (also called Her2/neu.943) [HER2/neu peptide, position 943, 9 amino acids]  0.0001 ratio to standard peptide
26. PPGAASTQV (also called Her2/neu.17) [HER2/neu peptide, position 17, 9 amino acids]  0.0001 ratio to standard peptide
27. NPEYLGLDV (also called Her2/neu.1245) [HER2/neu peptide, position 1245, 9 amino acids]  0.0001 ratio to standard peptide
28. B3  0.0001 ratio to standard peptide
29. VPLPSETDGY (also called Her2/neu.1118) [HER2/neu peptide, position 1118, 10 amino acids]  0.0001 ratio to standard peptide
30. SPAFDNLYYW (also called Her2/neu.1214) [HER2/neu peptide, position 1214, 10 amino acids]  0.0001 ratio to standard peptide
31. NPQLCYQDTI (also called Her2/neu.158) [HER2/neu peptide, position 158, 10 amino acids]  0.0001 ratio to standard peptide
32. QPHPPPAF (also called Her2/neu.1206) [HER2/neu peptide, position 1206, 8 amino acids]  0.0002 ratio to standard peptide
33. TPTAENPEYL (also called Her2/neu.1240) [HER2/neu peptide, position 1240, 10 amino acids]  0.0002 ratio to standard peptide
34. PPPAFSPAF (also called Her2/neu.1209) [HER2/neu peptide, position 1209, 9 amino acids]  0.0002 ratio to standard peptide
35. QPHPPPAFSPA (also called Her2/neu.1206) [HER2/neu peptide, position 1206, 11 amino acids]  0.0003 ratio to standard peptide
36. PPICTIDVYM (also called Her2/neu.944) [HER2/neu peptide, position 944, 10 amino acids]  0.0004 ratio to standard peptide
37. QPQNGSVTCF (also called Her2/neu.568) [HER2/neu peptide, position 568, 10 amino acids]  0.0004 ratio to standard peptide
38. SPETHLDML (also called Her2/neu.38) [HER2/neu peptide, position 38, 9 amino acids]  0.0005 ratio to standard peptide
39. NPHQALLHTA (also called Her2/neu.488) [HER2/neu peptide, position 488, 10 amino acids]  0.0005 ratio to standard peptide
40. SPETHLDM (also called Her2/neu.38) [HER2/neu peptide, position 38, 8 amino acids]  0.0014 ratio to standard peptide
41. QPPSPREGPL (also called Her2/neu.1148) [HER2/neu peptide, position 1148, 10 amino acids]  0.0014 ratio to standard peptide
42. SPNHVKITDF (also called Her2/neu.855) [HER2/neu peptide, position 855, 10 amino acids]  0.0016 ratio to standard peptide
43. VPIKWMALESI (also called Her2/neu.884) [HER2/neu peptide, position 884, 11 amino acids]  0.0017 ratio to standard peptide
44. VPLQRLRI (also called Her2/neu.94) [HER2/neu peptide, position 94, 8 amino acids]  0.002 ratio to standard peptide
45. QPPICTIDVYM (also called Her2/neu.943) [HER2/neu peptide, position 943, 11 amino acids]  0.002 ratio to standard peptide
46. SPMCKGSRCW (also called Her2/neu.196) [HER2/neu peptide, position 196, 10 amino acids]  0.0021 ratio to standard peptide
47. SPLAPSEGA (also called Her2/neu.1073) [HER2/neu peptide, position 1073, 9 amino acids]  0.003 ratio to standard peptide
48. WPDSLPDLSV (also called Her2/neu.415) [HER2/neu peptide, position 415, 10 amino acids]  0.0044 ratio to standard peptide
49. PPSPREGPL (also called Her2/neu.1149) [HER2/neu peptide, position 1149, 9 amino acids]  0.0054 ratio to standard peptide
50. PPICTIDVYMI (also called Her2/neu.944) [HER2/neu peptide, position 944, 11 amino acids]  0.0064 ratio to standard peptide
51. VPLQRLRIV (also called Her2/neu.94) [HER2/neu peptide, position 94, 9 amino acids]  0.0077 ratio to standard peptide
52. MPYGCLLDHV (also called Her2/neu.801) [HER2/neu peptide, position 801, 10 amino acids]  0.0085 ratio to standard peptide
53. B1  0.009 ratio to standard peptide
54. SPLTSIISA (also called Her2/neu.649) [HER2/neu peptide, position 649, 9 amino acids]  0.015 ratio to standard peptide
55. WPDSLPDL (also called Her2/neu.415) [HER2/neu peptide, position 415, 8 amino acids]  0.02 ratio to standard peptide
56. SPGKNGVV (also called Her2/neu.1174) [HER2/neu peptide, position 1174, 8 amino acids]  0.023 ratio to standard peptide
57. SPLTSIISAVV (also called Her2/neu.649) [HER2/neu peptide, position 649, 11 amino acids]  0.025 ratio to standard peptide
58. RPRFRELV (also called Her2/neu.966) [HER2/neu peptide, position 966, 8 amino acids]  0.041 ratio to standard peptide
59. SPYVSRLL (also called Her2/neu.779) [HER2/neu peptide, position 779, 8 amino acids]  0.044 ratio to standard peptide
60. B2  0.049 ratio to standard peptide
61. SPGGLREL (also called Her2/neu.133) [HER2/neu peptide, position 133, 8 amino acids]  0.055 ratio to standard peptide
62. SPGGLRELQL (also called Her2/neu.133) [HER2/neu peptide, position 133, 10 amino acids]  0.058 ratio to standard peptide
63. SPKANKEI (also called Her2/neu.760) [HER2/neu peptide, position 760, 8 amino acids]  0.058 ratio to standard peptide
64. SPLDSTFYRSL (also called Her2/neu.998) [HER2/neu peptide, position 998, 11 amino acids]  0.064 ratio to standard peptide
65. SPLTSIISAV (also called Her2/neu.649) [HER2/neu peptide, position 649, 10 amino acids]  0.09 ratio to standard peptide
66. SPYVSRLLGI (also called Her2/neu.779) [HER2/neu peptide, position 779, 10 amino acids]  0.1 ratio to standard peptide
67. SPKANKEIL (also called Her2/neu.760) [HER2/neu peptide, position 760, 9 amino acids]  0.12 ratio to standard peptide
68. SPREGPLPAA (also called Her2/neu.1151) [HER2/neu peptide, position 1151, 10 amino acids]  0.46 ratio to standard peptide
69. SPREGPLPA (also called Her2/neu.1151) [HER2/neu peptide, position 1151, 9 amino acids]  0.64 ratio to standard peptide
70. RPRFRELVSEF (also called Her2/neu.966) [HER2/neu peptide, position 966, 11 amino acids]  1.3 ratio to standard peptide
71. VPIKWMAL (also called Her2/neu.884) [HER2/neu peptide, position 884, 8 amino acids]  1.4 ratio to standard peptide

Target: HLA-B*0702 (human)
Assay: competition with 125I-labelled probe peptide for purified HLA, gel filtration

First: APGAGGMV [HER2/neu peptide, position 1036, 8 amino acids]
Second: APLQPEQLQV [HER2/neu peptide, position 390, 10 amino acids]
The relative binding ratio of the first is higher: 0.0063 ratio (IC50 of standard / IC50 of test peptide) for the first, 0.0001 ratio (IC50 of standard / IC50 of test peptide) for the second.

For APLQPEQL [HER2/neu peptide, position 390, 8 amino acids], the relative binding ratio was < 0.0006 ratio (IC50 of standard / IC50 of test peptide).
